Biological target: the molecule itself
Assay: SEC

B1: PfUIS3 soluble domain (residues 83-229) (domain or fragment, Plasmodium falciparum, UniProt Q8IEU1 83-229, looked up)
chain: YYGYKKSREDDLYYNKYLEYRNGEYNIKYQDGAIASTSEFYIEPEGINKINLNKPIIENKNNVDVSIKRYNNFVDIARLSIQKHFEHLSNDQKDSHVNNMEYMQKFVQGLQENRNISLSKYQENKAVMDLKYHLQKVYANYLSQEEN
  stoichiometry N: 2

From PMC2527117 (The Journal of Biological Chemistry, 2008)
